Results: patent US20260152555A1 (HUAHUI HEALTH, published 2026)
Where a chain is given by its changes, count along the chain named. Numbers in names are those of the source.

Legend:
hCD112R-ECD-His6-Avi = target: T1, hCD112R-ECD-His6-Avi (human, UniProt Q6DKI7 42-172, biotinylated (Avi tag) in the ELISA assays); assay: SPR (Biacore T200), multi-cycle; H733 captured on anti-hFc Ab, hCD112R-ECD-His6-Avi injected; 1:1 Langmuir [Cont') B]
T1 construct: range 42-172; Expressed in HEK 293F cells; Analyte in SPR, and captured on streptavidin in ELISA; also called biotinylated hCD112R-ECD-His6-Avi; not shown: C-terminal His6-Avi tag
T1 sequence (looked up): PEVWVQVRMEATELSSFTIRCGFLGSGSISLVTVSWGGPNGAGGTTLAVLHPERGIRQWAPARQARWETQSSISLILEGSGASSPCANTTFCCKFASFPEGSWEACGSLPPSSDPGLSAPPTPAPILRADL
Method: Anti-hFc Ab (Thermo Fisher) was covalently attached to surfaces of a CM5 sensor chip using an amine coupling kit (GE Healthcare). Abs at optimal concentrations were captured on the chip and the analytes (hCD112R-ECD-His₆-Avi) at single concentration or serial dilutions were then injected. Binding kinetics were evaluated using a 1:1 Langmuir binding model. The association rates (ka), dissociation rates (kd), and affinity constants (KD) were calculated using Biacore T200 evaluation software.

H92A = target: T2, H92A (human, UniProt Q6DKI7); assay: SPR (Biacore T200), multi-cycle; H733-hIgG4 captured on anti-hFc Ab, hCD112R-ECD-mFc variant injected (3.125-100 nM); 1:1 Langmuir [Cont') B]
T2 construct: extracellular domain, amino acids 42-172; alanine-scanning variant; also called hCD112R-ECD-mFc H92A variant
T2 sequence (Fc fusion chain, looked up): T1 sequence (looked up) with H51A
Method: (§1) Kinetic analyses of the bindings of WT or mutated hCD112R-ECD-mFc proteins to H733 and hCD112-ECD were performed on a Biacore T200 instrument (Biacore, GE Healthcare). For the single-cycle SPR analysis, anti-mFc Ab (Thermo Fisher) was covalently attached to surfaces of a CM5 sensor chip using an amine coupling kit (GE Healthcare). WT or mutated hCD112R-ECD mFc fusion proteins were captured on the chip and H733-hIgG4 or hCD112-ECD-hFc were then injected. For the multi-cycle SPR analysis, anti-hFc Ab (Thermo Fisher) was covalently attached to surfaces of a CM5 sensor chip using an amine coupling kit (GE Healthcare). H733-hIgG4 or hCD112-ECD-hFc protein was captured on the chip and 2-fold serially diluted WT or mutated hCD112R-ECD-mFc proteins (3.125-100 nM) were then injected. Binding kinetics were evaluated using a 1:1 Langmuir binding model. The association rates (ka), dissociation rates (kd), and affinity constants (KD) were calculated using Biacore T200 evaluation software.

K135A = target: T3, K135A (human, UniProt Q6DKI7); assay: as above
T3 construct: extracellular domain, amino acids 42-172; alanine-scanning variant; also called hCD112R-ECD-mFc K135A variant
T3 sequence (Fc fusion chain, looked up): T1 sequence (looked up) with K94A
Method: as §1

[1] = target: T4, hCD112R-ECD-mFc E145A variant (human; mouse, UniProt Q6DKI7 42-172); assay: as above
T4 construct: range 42-172; also called E145A mutation of hCD112R; not shown: Fc domain of mouse IgG2a
T4 sequence (looked up): T1 sequence (looked up) with E104A
Method: as §1

[2] = target: T5, hCD112R-ECD-mFc V90A variant (human; mouse, UniProt Q6DKI7 42-172); assay: as above
T5 construct: range 42-172; also called V90A mutation of hCD112R; not shown: Fc domain of mouse IgG2a
T5 sequence (looked up): T1 sequence (looked up) with V49A
Method: as §1

[3] = target: T6, hCD112R-ECD-mFc W100A variant (human; mouse, UniProt Q6DKI7 42-172); assay: as above
T6 construct: range 42-172; also called W100A mutation of hCD112R; not shown: Fc domain of mouse IgG2a
T6 sequence (looked up): T1 sequence (looked up) with W59A
Method: as §1

koff (hCD112R-ECD-His6-Avi): 0.000865 s⁻¹ | kon (hCD112R-ECD-His6-Avi): 1.33e+06 M⁻¹ s⁻¹ | Kd (H92A): 0.366 nM | koff (H92A): 0.000373 s⁻¹ | kon (H92A): 1.02e+06 M⁻¹ s⁻¹ | Kd (K135A): 0.847 nM | koff (K135A): 0.000412 s⁻¹ | kon (K135A): 487000 M⁻¹ s⁻¹ | Kd [1]: 1.42 nM | koff [1]: 0.000418 s⁻¹ | kon [1]: 296000 M⁻¹ s⁻¹ | Kd [2]: 2.01 nM | koff [2]: 0.000475 s⁻¹ | kon [2]: 237000 M⁻¹ s⁻¹ | Kd [3]: 5.64 nM | koff [3]: 0.000574 s⁻¹ | kon [3]: 102000 M⁻¹ s⁻¹
B1: H733 (humanized Ab composed of 733-VH-humanV2 and 733-VL-human-C91S) (antibody, human IgG4, V domains shown)
VH: QVQLVQSGAEVKKPGASVKVSCKASGYTFTNYLIEWVRQAPGQGLEWMGVINPGHGFTNYAQKFQGRVTMTRDTSTSTVYMELSSLRSEDTAVYYCARGEWDWYFDVWGQGTTVTVSS
VL: DIQLTQSPSFLSASVGDRVTITCKASQNVGTAVAWYQQKPGKAPKLLIYSTSNRYTGVPSRFSGSGSGTEFTLTISSLQPEDFATYYCQQSSSYPFTFGGGTKVEIK
notes: also called H733-hIgG4; H733 mAb (hIgG4 form)
